Experimental data reported in patent publication US20250262323, “PCSK9 ENDONUCLEASE VARIANTS, COMPOSITIONS, AND METHODS OF USE” (Novo Nordisk A/S, published 2025).

Legend:
[1] = biological target: T1, PCSK9.H7.C11 I-OnuI HE variant (synthetic construct (Ophiostoma …)); test: flow; sub-nanomolar affinity; yeast surface display substrate titration; exact value only in figure; details: tags: yeast surface display
T1 chain: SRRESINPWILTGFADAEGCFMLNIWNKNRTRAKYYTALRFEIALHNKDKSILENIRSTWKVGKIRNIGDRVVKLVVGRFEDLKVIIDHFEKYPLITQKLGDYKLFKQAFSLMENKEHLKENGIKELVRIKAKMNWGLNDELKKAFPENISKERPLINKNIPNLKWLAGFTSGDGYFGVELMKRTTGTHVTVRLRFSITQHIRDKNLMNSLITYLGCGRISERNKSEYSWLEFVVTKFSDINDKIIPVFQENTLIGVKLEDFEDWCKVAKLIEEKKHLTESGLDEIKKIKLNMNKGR

[2] = biological target: T1, PCSK9.H7.C11 I-OnuI HE variant; test: cell_activity; HEK 293T chromosomal mCherry reporter
Description: The activity of reprogrammed I-OnuI HEs that target exon 4 of the PCSK9 gene was measured using a chromosomally integrated fluorescent reporter system (Certo et. al., 2011). Fully reprogrammed I-OnuI HEs that bind and cleave the PCSK9 target sequence were cloned into mammalian expression plasmids and then individually transfected into a HEK 293T […] cell line that contained the PCSK9 target sequence upstream of an out-of-frame gene encoding the fluorescent mCherry protein. Cleavage of the embedded target site by the HE and the accumulation of indels following DNA repair via the non-homologous end joining (NHEJ) pathway results in approximately one out of three repaired loci placing the fluorescent reporter gene back “in-frame”. The percentage of mCherry fluorescing HEK 293T cells is therefore used a readout of endonuclease activity at the chromosomally embedded target sequence. […] FIG. 3 (top panels).
A secondary I-OnuI variant library was next generated by performing random mutagenesis on the PCSK9.H7 HE variant (e.g., SEQ ID NO: 6). Display-based flow sorting was performed under more stringent cleavage conditions in an effort to isolate variants with improved catalytic efficiency. FIG. 3 (bottom panel). This process led to variant PCSK9.H7.C11 (SEQ ID NO: 7) with an approximately 2-fold higher rate of mCherry expressing cells.

B1: PCSK9 exon 4 HE target site (dsDNA)
DNA 1: ATCTAAGAGATACACCTCCACC
DNA 2: GGTGGAGGTGTATCTCTTAGAT
[1]
  Kd: < 1 nM
[2]
  activity: ~2 fold vs PCSK9.H7
